Results on three molecules are retold here after US11739297B2, “Method of increasing tumor killing activity of macrophages or monocytes comprising chimeric antigen receptor” (Carisma Therapeutics Inc., priority 2020, dated 2023).

Test [1] has as its system human macrophages. The experiment in a line: Viability, CAR expression and M1/M2 markers of HER2 CAR mRNA electroporated macrophages cultured with cytokines. The conditions noted are these: mRNA transfected CAR macrophages. The format is cell-based. As for the experimental part: Human macrophages were electroporated with HER2 CAR mRNA comprising m6AGCap1 and PsU modifications. Cells were cultured with cytokines that induce an M1 phenotype such as IFN-alpha, IFN-beta, IFN-gamma, IFN-gamma plus lipopolysaccharide (LPS), TNF-alpha, IL-6 or a STING ligand (STING-L) for up to 48 hours and then cytokines were washed off and fresh media was added. CAR expression and M1 marker expression were measured on days 2 and 7 after transfection. Fluorescent labeled HER2+ breast cancer cells (CRL2351) were co-cultured with HER2 CAR macrophages two days after the macrophages were transfected. Cancer cell growth was monitored via its fluorescence on an Incucyte® live imaging microscope every four hours. The Effector (CAR macrophage) to Target (cancer cell) ratio was 5:1.
Five different mRNA modifications were also tested to determine if interferon treatment differentially affected macrophages transfected with mRNA comprising different modifications. Human macrophages were electroporated with HER2 CAR mRNA comprising different mRNA modifications. CAR expression and M1 markers were detected by Flow Cytometry (Attune) on day four after electroporation. Day 4 CAR macrophage cells were then co-cultured with a Nuc-Light labeled, HER2+ breast cancer cell line (CRL2351) at an Effector (CAR macrophage) to Target (cancer cell) ratio of 5:1. Cancer cell growth was monitored via its fluorescence on an Incucyte® live imaging microscope every four hours.
Human macrophages were electroporated with 300 nM CAR mRNA comprising m6AGCap1 and PsU modifications. Cells were cultured with 20 ng/mL IFNs for 24 hours and then the cells were washed to remove cytokines. CAR expression was detected by Flow Cytometry (Attune) on day 2 after transfection. Cells were then co-cultured with a Nuc-Light labeled, HER2+ breast cancer cell line (CRL2351) at the Effector to Target ratio of 3:1. Cancer cell growth was monitored via its fluorescence on an Incucyte® live imaging microscope. CAR expression and M1 markers in macrophages were detected by Flow Cytometry (Attune) on day 7 after transfection.

The subject of test [2] is HER2+ breast cancer cells (CRL2351). The experiment in a line: Cytokine secretion of interferon treated HER2 CAR macrophages in co-culture (MSD). The format is cell-based, human. The conditions noted are these: 150 nM CAR mRNA, E:T 3:1, 48 hours co-culture. As for the experimental part: Human macrophages were electroporated with 150 nM HER2 CAR mRNA comprising m6AGCap1 and PsU modifications. HER2+ breast cancer cells (CRL2351) were co-cultured with CAR macrophages after the macrophages were transfected with the CAR mRNA at an Effector (CAR macrophage) to Target (cancer cell) ratio of 3:1. Supernatant was collected 48 hours after the cancer cells and macrophages were co-cultured and cytokine levels were measured using a Meso Scale Discovery (MSD) instrument.

Test [3] deals with Her2-Zeta CAR expressing macrophages. Briefly: M1 and M2 surface marker expression after agonist priming (flow cytometry). It counts as cell-based, human. The conditions noted are these: mRNA transduced CAR macrophages, 3 days on agonist coated wells. The procedure:
(§1) To generate Her2-Zeta CAR expressing macrophages, primary human macrophages were suspended in EP buffer (MaxCyte) containing 300 nM mRNA (TriLink) at a concentration of 90×10^6 cells/mL. 100 μL of cell mixture was added to an electroporation cassette (OC100×2; MaxCyte) and electroporated using the Experimental T cell 1 setting. Cells were removed from the cassette, plated in 3 mL of TexMACS media (Miltenyi Biotech) containing 20% FBS (Gibco) on UpCell plates (Thermo Scientific), and incubated overnight at 37 C and 5% CO2.
(§2) Recombinant CD40 ligand (Peprotech), 4-1BB ligand (Enzo Life Sciences), and 4-1BB receptor (Peprotech) were resuspended in molecular grade water to a stock concentration of 100 μg/mL. Stock solution was then used to create working solutions in PBS ranging from 2-0.002 μg/mL. 100 uL of working solution was added to wells in a 96-well plate and left at room temperature for 4 h.
For detection of cell surface proteins, macrophages were plated onto wells coated with agonist molecules in a final volume of 200 uL TexMACS media+10% FBS+10 ng/mL GM-CSF and incubated for 3 days at 37 C and 5% CO2. Cells were incubated in 300 μL Accutase (Sigma) for 30 min and transferred to 96-well round bottom plate for staining. Cells were incubated in FACS buffer containing 20 μg/mL Her2-His for 20 min at RT, followed by incubation in Human TruStain FcX for 10 min at RT. […]
(In general: In flow cytometry, cells or beads pass a laser one at a time.)

In test [4] the test system is CRL-2351 cells expressing nuclear GFP. The experiment in a line: Tumor cell killing by macrophages primed on agonist coated plates (Incucyte). The conditions noted are these: plate-coated agonist, 3 h priming. The format is cell-based, human. As for the experimental part:
as §1, §2
Plates were removed from the incubator and left at room temperature for 30 min. Cells were detached from plate, counted using the NC-200 automated cell counter (Chemomtech), and re-suspended in TexMACS media with 10% FBS. […] Cell lysis was detected using Incucyte® analysis (Essen Bioscience). Tumor cell death was calculated by integrated GFP intensity per well relative to time 0.

Test [5] deals with human macrophages. Briefly: mCherry mRNA expression in transfected macrophages (Incucyte). The format is cell-based. The conditions noted are these: mCherry mRNA (m6AGCap1 and PsU or N1mPsU), one day, different doses. As for the experimental part:
Human macrophages were transfected with mCherry mRNA comprising m6AGCap1 and PsU or N1mPsU modifications and were then cultured for one day with different doses of IFN-γ. mCherry expression was monitored on an Incucyte® live imaging microscope.
In order to determine whether an RNaseL inhibitor could rescue IFN-γ-induced instability of transfected mRNA, human macrophages were treated with 1 μM sunitinib (an RNaseL inhibitor) two hours prior to the transfection of mCherry mRNA comprising m6AGCap1 and PsU modifications. Transfected cells were then cultured for one day with different dosages of IFN-γ. mCherry expression was monitored on an Incucyte® live imaging microscope.
The effect of another RNaseL inhibitor (RLI or ABCE1) was also tested to further validate the concept. Human macrophages were co-transfected with mRNA encoding mCherry comprising m6AGCap 1 and PsU modifications and with mRNA encoding ABCE1.

In the case of IFN-α, in test [1], the “M1 phenotype (based on CD86 expression)” value was “induction of an M1 phenotype” and the “M2 markers (based on CD163 expression)” value is “reduction of M2 markers”. The “secretion of the cytokines IL-6, IL-8 and TNFα” value in test [2] was “increased secretion”.

B1: CD40L: Recombinant CD40 ligand (Peprotech), CD40 agonist (protein, UniProt P29965 113-261, looked up)
CD40 ligand, soluble form: MQKGDQNPQIAAHVISEASSKTTSVLQWAEKGYYTMSNNLVTLENGKQLTVKRQGLYYIYAQVTFCSNREASSQAPFIASLCLKSPGRFERILLRAANTHSSAKPCGQQSIHLGGVFELQPGASVFVNVTDPSQVSHGTGFTSFGLLKL
For the molecule B1, the “M1 phenotype (expression of M1 and M2 markers)” value in test [3] is listed as “induced an M1 phenotype”. Besides, the “tumor killing ability of macrophages and CAR macrophages” value in test [4] is “significantly improved the tumor killing ability”.

B2: IFN-γ: interferon cytokine that induces an M1 phenotype (protein, UniProt P01579 24-161, looked up)
Interferon gamma: QDPYVKEAENLKKYFNAGHSDVADNGTLFLGILKNWKEESDRKIMQSQIVSFYFKLFKNFKDDQSIQKSVETIKEDMNVKFFNSNKKKRDDFEKLTNYSVTDLNVQRKAIHELIQVMAELSPAAKTGKRKRSQMLFRG
For B2, in test [1], the “M1 phenotype (based on CD86 expression)” value was “induction of an M1 phenotype” and the “M2 markers (based on CD163 expression)” value was “reduction of M2 markers”. For the same molecule, the mCherry expression result in test [5] is listed as “reduced mCherry mRNA expression”. Also, in test [2], the “secretion of the cytokines IL-6, IL-8 and TNFα” value is listed as “increased secretion”.
